Data taken from paper PMC11327358 (Nature Communications, 2024).

Legend:
[1] = target: S2A5-L1^A (S2A5 with alanine substitution in light chain region 26-30C) (mouse | human); experiment: BLI
[2] = target: GTV Gn head domain (residues 19-337) (Guertu virus (GTV), GenBank KT328592.1, UniProt A0A0S2Z2X2); experiment: ELISA

SFTSV Gn head domain protein (residues 20-340, strain WCH97, genotype A) (domain or fragment)
fold decrease of binding affinity against WT S2A5 [1]: 11 fold

B1: mAb S2A5 (mouse variable regions on human IgG1) (antibody, V domains shown)
VH: EVQLQQSGPELVKPGASVKVSCKASGYSFSDDNMYWVKQSHGKSLEWIGYIDPDNGGTSYNQKFKGKATLTVDKSSSTAFMHLNSLTSEDSAVYYCAREDYYGSRAMDYWGQGTSVTVSS
VL: DIVLTQSPASLAVSLGQRATISCKASQSVDYAGDSYMNWYQQKPGQPPKLLIYAASNLESAIPARFSGSGSGTDFTLNIHPVQEEDAATYYCQQSYEDPRTFGGGTKLEIK
binding result [2]: binds

B2: mAb B1G11 (mouse variable regions on human IgG1) (antibody, V domains shown)
VH: EVKLMESGGGLVQPGDSLRLSCAISGFTFSDYYMSWVRQPPGKALEWLGFIRNKAKGYTTEYSASVKGRFTISRDNSQSILYLQMNTLRAEDSATYYCARDYRYDDEYYYAMDYWGQGTSVTVSS
VL: GVVMTQTTSSLSASLGDRVTISCSASQGISNYLNWYQQKPDGTVKLLIYYTSILHSGVPSRFSGSGSGTDYSLTISNLEPEDIATYYCQQYSKFPRTFGGGTKLEIK
binding result [2]: binds

B3: mAb N1D10 (mouse variable regions on human IgG1) (antibody, V domains shown)
VH: EVKLVESGGGLVQPGGSLKLSCAASGFTFSTYTMSWVRQTPEKRLEWVAYISNGGGSTYYPDTVKGRFTISRDNAKNTLYLQMSSLNSEDTAMYYCARSYGNFDVWGAGTTVTVSS
VL: DVVMTQTPLSLPVSFGDQVSISCRSSQSLANSYGNTYLSWYLHKPGQSPQLLIYGISKRFSGVPDRFSGSGSGTDFTLKISTIKPEDLGMYYCLQGTHQPWTFGGGTKLEIK
binding result [2]: binds
